These results are taken from the DeepSol protein solubility set.

A short description of the series: soluble on expression in E. coli; label from the status in PepcDB or PDB records.
Consider “MFDILMYLFENYVHSEVELLVDEDELTKELTRAGFHQSEILKALTWLERLAELQEGDKPYLCNHDQHSFRIYTKDEMEKLDVECRGFLLFLEQVKVLNVETREMVIDRVMELDEPALILEDLKWVILMVLFNAPGHESAYEQMEDLIFEQPEEGRLHS”, for which the “soluble on expression in E. coli” value is on record as “soluble”. “MGHHHHHHSHMAAPLGGMFSGQPPGPPQAPPGLPGQASLLQAAPGAPRPSSSTLVDELESSFEACFASLVSQDYVNGTDQEEIRTGVDQCIQKFLDIARQTECFFLQKRLQLSVQKPEQVIKEDVSELRNELQRKDALVQKHLTKLRHWQQVLEDINVQHKKPADIPQGSLAYLGAGICQHPCTSEANVSKGQRQLAYEWADA”: the “soluble on expression in E. coli” value is “not soluble”. With “MDESVDPVELLLRLLIRHKPHLKPYAYRQDSWQRVLDEYNRQTGSRYRQSRTLKTKFRRLKDLFSADRAQFSPSQLKLMGALLDEAPEHPRPRTKFGNESSSSLSSSSFIKSHPGPDPFQQLSSAEHPNNHSSDDEHSGSQPLPLDSITIGIPPTLHTIPMILSKDNDVGKVIKSPKINKGTNRFSETVLPPQMAAEQSWSDSNMELEICLDYLHNELEVIKKRQEDFECKVLNKLNIIEALLSQMRPPSQGDKI” the entry was “soluble”; with “MGSDKIHHHHHHMEMNEVIIDENLKESIDLWTFMLPIISHRTTIRKNIHGYMPLHWHDELQFVVIIQGEARFQVNEEAIIVQEGDGLFINSGCLHMVEDGNGSNCVYICLNVPAQSIISRELYTAYVAPYVQATNLPYVLIPSSEMWGQNIIEATLNIHQCLEEQPPYYEMDITTKLTVIWKSLITNGFPLEYDQSAMIKNQRMKAMLQWIHLHYGENIRLDDIAKAGQLSRSECCRYFKRTLKMTPLQYVTDYRIQKSVTLLQQPESNVTDVAYQVGFNSTSYFIDQFRKAMNMTPLRYKKSKLERLID”, “not soluble”. Then “MEYFDMRKMSVNLWRNAAGETREICTFPPAKRDFYWRASIASIAANGEFSLFPGMERIVTLLEGGEMLLESADRFNHTLKPFQPFAFAADQVVKAKLTAGQMSMDFNIMTRLDVCKAKVRIAERTFTTFGSRGGVVFVINGAWQLGDKLLTTDQGACWFDGRHTLRLLQPQGKLLFSEINWLAGHSPDQVQ”, with “soluble”. Then “MSLFPNYEFSFRPIARKFVRSLVTSHGIWEVREAIILRLTDTTGKVGWGEIAPISWFGSETLAQALDFCRQLPEEITQEIIFSIPDDLPACQFGFESALEAMGSGEDVTITNAQFSALLPAGEAALHQWQSLWDEGYRTFKWKIAVGEVAQELRIFDSLTQILPASAKLRLDANGGLSYPEAHLWLQACDNLPVEVEFIEQPLPVEQFSQMLELSEAYPTAIALDESVANLKQLAACYAQGWRDVFVIKPAIAGSPSRLRQFCQQHEIDAVFSSVFETAIARKASLQLAAELSRDNRAVGFGVNHLFHQEAENWLQSLWNNPEGHHHHHH”, with “soluble”. As to “GPGSMSGIKIEEVISTTKKERVAAHSHVKGLGLNPDGTTKHIADGFVGQEKAREAAGIAVELIRSKKMAGRALLFAGPPGTGKTALALGIAKELGPKVPFCPMVGSEVYSAEVKKTEVLMENFRRAIGLRIKENKEVYEGEVTELRAEETDNPLGGYGKSISHVIITLKSQKGSKLLKLDAAIYESLEKEKVSVGDVIYIEASSGAVKRVGRSDAYIGDHDLEADEYVPIPKGDVHKKKEVIQDVTLHDLDMANAKPSQGQDALSIVSSMMRHKKTEVTEKLRQEINKVVNKYIDQGVAELVPGVLFIDEVHMLDIECFTYLNKALESTLAPVVIFATNRGSCRIRGTEIRAPHGMPTDLLDRLLIIRTMNYDVSEITSIVEIRAHVEGVKISEAALTKLGIIGESTSLRFVVQLLTPALIIAETNGREMLEEEDVDLVAELFKDGKASARQLQDHAEEYVYQ”, the “soluble on expression in E. coli” value was “soluble”. As for “MAVDGLVSEKIKELLKELGKTYKLVVLTADTYGTLEKEFNGLPITVDKIKNEIEKEKAAEKYSPYIGIGNGNNDCLMLEKSELGILIIGEEGASTNALLKSDIVINNIKDAINLLLNEKRIIATL”, the “soluble on expression in E. coli” value was “not soluble”. With “MSLNATARQEPADLNDPALRARAVTAARGDAPFDMLITGGRLLDTVTGLIRQADIGLVGALISSVHAPASRTDAVEIIDAAGSILTPGLIDTHMHIESSMVTPAEYASAVLPRGVTTIVWDPHEFGNVHGLDGVRWAIEAARSLPLRMILLAPSCVPSAPGLELAGADFDASMITEMLHSSAVGGVAEVMNMRGVIDGDPRMTDIVNAGLAAGKLVCGHARGLEGADLNAFMASGITSDHELTSGADLLAKLSAGLTIELRGSHDHLLQEFVEVLSGLGHLPPTVTLCTDDVFPDELQEGGGLDDVVRRLVRYGMKPEWAIRAATFNAAQRLKRSDLGLVATGRRADIVLFEDLTEFRARLVISGGRIVARNGSMQVAVQQIDTAPLVNSVKLPPLTENDFRIPAKGERVRVATIDRPRFTQWGEAETEVRDGFIVPPAGSAMISVAHRHGKTDGIPRIGFLTGWGEWRGAFCTTVSHDSHNLTVFGGNAGDMALAANAVISAGGGMAVAKDGRIEAMLPLPLSGLVTDASLKDTALAFAGIRKAMEKIVTWKPPYLVFKACFGATLACNVGPHQTDQGIADVVTGKVLENPVLAVWEGHHHHHH” the entry was “soluble”.

Regarding “MAVTAQAARRKERVLCLFDVDGTLTPARQKIDPEVAAFLQKLRSRVQIGVVGGSDYCKIAEQLGDGDEVIEKFDYVFAENGTVQYKHGRLLSKQTIQNHLGEELLQDLINFCLSYMALLRLPKKRGTFIEFRNGMLNISPIGRSCTLEERIEFSELDKKEKIREKFVEALKTEFAGKGLRFSRGGMISFDVFPEGWDKRYCLDSLDQDSFDTIHFFGNETSPGGNDFEIFADPRTVGHSVVSPQDTVQRCREIFFPETAHEA”, the “soluble on expression in E. coli” value is “soluble”.

For “MGSDKIHHHHHHMATIDLIVLGIVKQQPKSAYDIQKAVEYRNISRWVKISTPSIYKKVIQLEQKGYIESKTVKNGKMPEKAVYSLTELGETHFLDLMFDTSSKPINILLDFNAVIVNLNSLTPEKQKLCLNNIEENVQELKKTIEENISIKTEVPETAKAVLEQQLVLAQALETWINSLKDNTGN”, the “soluble on expression in E. coli” value is on record as “not soluble”. With “SADDKDVLRDVWFGRIPACFTLSPDETTEREAEPYYLLLPRVSYLTLVTDKVKKHFLKVMKAEDVEEMWFEHEGTPLKWHYPIGVLFDLHASNSALPWNVTVHFKNFPEQDLLHCSTNSVIEAHFMSCIKEADALKHKGQVINDMQKKDHKQLWMGLQNDKFDQFWAMNRKLMEYPTEEGGFRYIPFRIYQTMSDRPFIQTLFRPVSSEGQALTLGDLLKELFPAAIEDEPKKFQVMIHGIEPLLETPIQWLSEHLSHPDNFLHISIIPAPSD” the entry was “soluble”; with “MSLQKEEILKLPISYKNIRLIRLNLPQKEQFVSGIGVRNSRKALIIEWEDDNGTKGYGECSCRPDPYYSDEFIEGAIALVNQFIVPFLKQNQTFGDLLKLLDKIRGWNFTKAAVEMAALQVIEQNTGKSPFQLLQNKPLAHVPVGISLGLYTDVDRMKKVVKNALETGYKRLKFKISPKVRVDFFEEINPMLFEADTFVSFDANGSFGENDLDIFHYFANTYQSMIEQPFAPTRFDILSKVKKEHPEIYICYDEEIKSIGDLIKLHHLGMLDEVNLKVGRVGGVMKSIEIIQYCAEHNIPCWIGGMFETGIGRTLNLRMASYLPNARAHDLSPSDRYFLEDIVQPNVQMNNGLVNMESLKNCTIQPNLIDKYTIDQKTLTRICEGHHHHHH”, “soluble”. Turning to “MGSDKIHHHHHHMDEVESNFLTVGTLNRYLSAKFVHDPYLKQVSLTGEIFGYKISSGSAYFELRDEDESSIRAYVSPTILRGFPFDFKSGDKVNLVADVRLYGKRAYASLFIFSMQPAGLGELYLKLAELKNKLTKEGIFNRPTKELNYFPKKIAVITSKTGAVIHDISSTIGHRNPNLKIELFESSVQGDSAVKELVSAVKKADQSDADAIIIARGGGSTLDLWPFNDEQLVRLLSSLSKPVISSIGHETDVTLTDLAADYRVETPTAAANKVTPAILDYRNNLDQLTALMSVDIKQLLQKNLNRFEYLANSPALKSFDQVFFNHEQKLQNLNLRLANSFAGEFQKNIQQFANLTAKLDALSPLKVLDRGFSLTFKGDRLIKNAQQLKEKDHIKILFAKGSALAEIKEISDDRRI”, the “soluble on expression in E. coli” value is “not soluble”.

Take “GPGSMTAVSNAAAVQATSGANGGSAVVTFFTTTYSKPMPEQSFSVPLNVLPDGLNQLVQNVLGVEGQNFDFLYKDEYIGTTLFRFLQRRGISCEELLNIEYTPALQAKEGNLLPHDDWVSSVRAPYRNNAELLLTGSYDHCVRLWDGDSCLALGSFHREAVKEVALHPVAPASSKTGRKRTRLDGDFMFASASKDGSVAAWKLDSTSSHMQLLGSIQAHTDGVDSVAIAPGDGRLVATASWDTTVKVFNWEQMMEGDTVPSKKAPLVTFTDHSRPVLCSRFSAAHGAARLYSAGYDGHIKCLDTEAAQLQSQFKGDHPINRISVKPAGSSPAADLLLSACTDNRARLFDTRQKDVVKTFSGSCQWLYSVVWLWDAQEGDAEHSGGSLFAVASEDATVRVYDLRCTNTALLTLDAMHTDGVLDVTYVGQSIIASGGKDNKTRSFALSKEGLLS”: the “soluble on expression in E. coli” value is given as “not soluble”. With “PIELLPETPSQTAGPYVHIGLALEAAGNPTRDQEIWNRLAKPDAPGEHILLLGQVYDGNGHLVRDSFLEVWQADANGEYQDAYNLENAFNSFGRTATTFDAGEWTLHTVKPGVVNNAAGVPMAPHINISLFARGINIHLHTRLYFDDEAQANAKCPVLNLIEQPQRRETLIAKRCEVDGKTAYRFDIRIQGEGETVFFDF” the entry was “soluble”. On to “MGSDKIHHHHHHMLDFNHQPSIAERINALIDSGLIADRDATPPRAYLGGSRLGHSCERALQFEFAGAPKDSGADFNGQTLRIFAIGHALEDVAIRWLRRAGFDIYTRKGNRPDGEQFGFSVAGGQVRGHVDGILADGPVIPGMGYPALWECKTMNAKNWRETVAKGVTVSKPVYAAQIALYQAYMEGTVPGISANPALFTAINKDTAELHHELVSFDGELAQRISDRAVRILQATDAGELLPRMSSDPDYFECRFCPWKTRCWA”, for which the “soluble on expression in E. coli” value was “not soluble”. Then “MAHHHHHHMRAVQLVQGRARMCCVPFLFWVCPPPHLFSLSLPTPSLRSCGARTSCVAERSHASRRGGCGLPSPLPAQPTSPPDTRTGDTCICAFSFTPDEVSQTMTDRCYRTLGLDRGAAEADIKRAYRRKALLFHPDRNPNGAEAFKALQGDYEEALTDARRRGARGGGVPPFSSMASPSWDPAAPAAGAAYRFARAAGTACPPFFPEPSPAPLFTDEELFADSIPGGWRDVCARRGASARGGDKAGGRNNAAGRTEEINGSNSCCSQEAAAADARWRRAHGARVPVSAYTFSGPVPPPPPLPSQPSPHLSSSSFTSFCTHTRARASVAGTGSRLSTQAQRNRFVSRECMWKSSSAEALSLDAKQEAGGAGKVGRSRGCDGYTGQNREPVCGSDTGESAEDRVYREAVLLQRRMPALSGKSRGAAAERTRTHSQSDRAFSTEGVPVGSNATFPATRGVYHQRSDLHTSSTTTTTTTSSSTKGERLEAALSQREALCRQCRDTETTLQHEVDDDHAPAFSDDGDASAHPDKGDGAGSTNAALGPSAAGPLAASGRDTSRAGDPFPVKQSACPESNSDDRLRGDLPHRDRIPDECPLLQSENPRGRYTPNPAEVAEMSDMEVYLLASVAEDINQKTQTVMTARLSKEPYSCSASTPRAHQHVYFTCTHPSACEDCYASGVSKCPLCGASGVDRSSPPPSATTTSSSIEKGGTTGASGACTGTRASLASSSAPSPETMYEPVRVHSVLTCGDADA”, with “not soluble”.
